According to paper PMC2873192 (Journal of the American Chemical Society, 2009):

Biological target: T1, integrin-linked kinase (ILK) ankyrin repeat domain (ARD) (UniProt Q13418 1-171)
T1 sequence: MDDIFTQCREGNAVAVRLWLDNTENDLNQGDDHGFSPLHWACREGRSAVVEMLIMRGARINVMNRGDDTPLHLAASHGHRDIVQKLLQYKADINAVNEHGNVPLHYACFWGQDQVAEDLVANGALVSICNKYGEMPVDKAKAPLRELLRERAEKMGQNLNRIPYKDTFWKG
Test: ITC

B1: PINCH LIM1 domain (domain or fragment)
chain: MANALASATCERCKGGFAPAEKIVNSNGELYHEQCFVCAQCFQQFPEGLFYEFEGRKYCEHDFQMLFAPC
Kd: ~68 nM
